Test: yeast display, Sf9 membrane polyspecificity reagent, FACS + sequencing; frameworks hold sequencing errors
Outline: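 In a synthetic yeast display library (Saccharomyces cerevisiae BJ5465), nanobody expression was induced with galactose for 36–48 hours. FACS gates were set low and high (top ~1%) using anti-HA fluorescence for expression and streptavidin fluorescence for binding of the Sf9 membrane reagent. Each polyreactivity label is drawn from the gate of origin.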

Sequence | polyreactivity (PSR sort gate)
QVQLVESGGGIVQAGGSLRLSCAASGSTLNSYVMGWYRQAPGKERELVATIRSGSSTNYADSVKGRFTISRDNAKYPDYLLMNSLKPEDTAVYSCAADAYSLCYDSWGQGTQVTVSS | low polyreactivity
QVQLVESGGGIVQAGGSLRLSCAASVFTFLHNTMGWYRQAPGKERELVAAISIGGRTYYADSVKGRFTISRDIAKKTVYLQMNSLKPEDTAVYYCAKLSGGQSPGYDYWGQGTQVTVSS | high polyreactivity
QVQLVESGGGIVQAGGSLRLSCAATGRIFTGYTMGWYRQAPGKERELVAAISQSGGRTYYADSVKGRFTISRDNAKHTVYLQMNSLKPEDTAVYYCAAVWSRTGYDYCGQGTQVTVSS | high polyreactivity
QVQLVESGGGIVQAGGSLRLSCAGSGSIVSGYTMGWYRQEPGKERELVAAITRSGGRTYYADSVKGRFTISRDYAKNTVYLQMNSLKPEDTSVYYCAAVDRRGANYNYWGQGTQVTVSS | high polyreactivity
QVQLVESGGGIVQAGGSLRLSCDASGSIFNYYTMGWYRQEPGKERELVAAISYRGGRTYYADSVKGRFTISRDNAKNTVYLQMNSLKPEDTAVYYCAAGWLLYVFFPREYYYWGQGTQVTVSS | high polyreactivity
QVQLVESGGGIVQAGGSLRLSSAASGRTFYVYTMGWYRQAPGKERELVAAITSGGSTNYADSVKGRFKISRDNAKNTVYLQMNSLKPEDTAVYYCAARFSTVFKRYYYWGQGTQLTVSS | high polyreactivity
QVQLVESGGGIVQAGGSLRLSWAASGRNFYRNAMGWYRQAPGKERELVAAISRSGGSTYYADSVKGRFTISRDNAKNTVYLQMNSLKAADTAVYYFNAYRYLQSGPPRYREHGSWGQGTQVNVSS | low polyreactivity
QVQLVESGGGIVQAGGSLSLRCAASGRIFITNAMGWNRQAPGKERELVAAIRRRGGNTYYADSVKGRFTISRDNGKNTVYLLMNSLKPEDSAVYYCAVYPRPYNYNYWGQGTQVTVSS | high polyreactivity
QVQLVESGGGIVQAGVSLRLSCAASGSTFWDNDMGWYRPAPGKERELVAVISWDDGSTYYADSVKGRFTISRDNAKNTVYLQMNSLKPEDTAVYYCAADAYYALFPSWTVGDCPYYYWGQGTQVTVSS | high polyreactivity
QVQLVESGGGIVQEGGSLRLSCAASGRTFGLNVMGWYRQAPGKERELVATISWSGGTTYYADSVKGRYTISRDNAKNTVYFQMKSLKPEDTGVYYCNRQVTWYPTGGYWGQGTQVTVSS | low polyreactivity
QVQLVESGGGIVQSGGSLRLSCDASGFIFGGNAMGWYIQAPGKERELVARISSGGITSYADSVKGRFTISRDNAKNTVYLHMNSQKPDDTAVYYCAARNGRIAWMNYWGQGTQVTVSS | low polyreactivity
QVQLVESGGGKVQAGGSLRLSCAASGNTFTSNALGWYRQAPGKERELVAAISISGSTNYADSVKGRFTISRDNAKNSVYLQMNSLKPEDTAVYSCAARVGYTAWRRYNYWGQGTQVTVSS | high polyreactivity
QVQLVESGGGKVQEGGSLRLSCAASGRTLAPYAMGWYRQAPGKERELVAISTIGGTTYYADSVKGRFTISRDNAKNTVYLQMNSLKPEDTAVYYGAADGNSTGVYLDGGEGFAYDYWGQGTQVTVSS | low polyreactivity
QVQLVESGGGLAQAGGSLRLSCAASGLIFYYNAMGWYRQAPGKERELVAAISSSGGRTYYADSVKGRFTISRDNAKNTVYLQMNSLKPEDTAVYYCAATSYGYGSRYDYWGQGTQVTVSS | high polyreactivity
QVQLVESGGGLAQAGGSLRLSCAASGRIFSVNVMGWYRQAPGKERELVAAITWSVGSTYYADSVKGRFTISRDNAKNTVYLQMNSLKPEDTAVFYCAARVPPVYGRVGGYHYWGQGTQVTVSS | low polyreactivity
QVQLVESGGGLDLAGGSLRLSCAASGRTCGYNAMGWYRQAPGKERELVATISWGGGSTYYADSVKGRFTISRDNAKNSVYLQMNSLKPEDTAVYYCNKVHYGRRHSYSGAIYGEDYWGQGTQVTVSS | high polyreactivity
QVQLVESGGGLDPAGGSLRLSCAASGSTFQYNAKGWYRQAPGKERELVAAISGSGGSTYYADSVKGRFTISRDNAKNTVYLQMNSLKPEDTAVYYCNADVSALWWPEEWYNASEFDYWGQGTQVTVSS | low polyreactivity

From the nanobody polyreactivity screen of Harvey et al. (2022)
